Reference: patent US20190367619A1 (ARGENX, published 2019)
Changes are numbered by the printed parent chain.

T1: human galectin-10-His (recombinant human galectin-10 with TEV-cleavable N-terminal His-tag) (human)
T1 construct: SEC-MALLS: dimer in solution; also called Gal10-His; humanGal10-His
T1 chain: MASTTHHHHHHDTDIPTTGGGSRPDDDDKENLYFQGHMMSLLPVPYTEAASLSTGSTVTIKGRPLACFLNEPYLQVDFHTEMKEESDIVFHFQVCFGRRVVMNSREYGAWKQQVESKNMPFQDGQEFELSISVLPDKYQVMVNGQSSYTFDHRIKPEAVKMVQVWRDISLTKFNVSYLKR

T2: cynomolgus galectin-10-His, YRT isoform (cynomolgus)
T2 construct: not shown: His tag
T2 chain: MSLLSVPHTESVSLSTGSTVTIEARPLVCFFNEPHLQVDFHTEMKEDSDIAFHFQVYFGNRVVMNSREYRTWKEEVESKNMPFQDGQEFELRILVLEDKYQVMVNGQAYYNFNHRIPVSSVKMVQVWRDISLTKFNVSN

T3: human galectin-10-His (human)
T3 construct: Whether the last M of the tag is the start Met of galectin-10 is not clear; also called human Gal10-HIS; humanGal10-His
T3 chain: T1 chain

T4: human galectin-10 as coated in ELISA (soluble galectin-10; tag not given) (human, UniProt Q05315 1-142, limits assumed)
T4 construct: also called coated galectin-10; Gal10
T4 sequence: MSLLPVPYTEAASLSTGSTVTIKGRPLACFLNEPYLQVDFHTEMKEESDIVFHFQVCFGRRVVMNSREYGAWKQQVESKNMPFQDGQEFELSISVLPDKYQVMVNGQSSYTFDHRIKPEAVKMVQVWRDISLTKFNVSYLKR

B1: 1A12 scFv-human Fc (Fc fusion)
scFv: QVQLVESGGGLVQPGGSLRVSCAASGFTFSSYYMSWVRQAPGKGLEWVSAINSGGGSTYYADSVKGRFTISRDNAKNTLYLQMNSLKSEDTAVYYCVQNGGIWSFGSWGQGTQVTVSSGGGGSGGGGSGGGGSSSALTQPSAISVSLGQTARITCQGGNFGYYYVSWYQQKPGQAPVQVIYGDSNRPSGIPERFSGSSSGGTATLTISGAQAEDEADYYCLSYESSDYPVFGGGTHLTVL
notes: about 100 kDa on SDS-PAGE; also called 1A12 ScFv-hFc; not shown: CH2-CH3 constant domains of human IgG1 (vector pUPEX50)
B2: 3A03 scFv-human Fc (Fc fusion)
scFv: QVQLVESGGGLVQPGGSLRLSCATSGFTFSVYAMSWVRQAPGKGLEWVADINTSGDSTTYADSVKGRFTISRDNAKNTLYLQMNSLKPEDTAVYYCANRYTQERGQGTQVTVSSGGGGSGGGGSGGGGSDVVLTQTPGSLSVVPGEAASISCKPGRTLVHTDGRTYLYWLQQKPGQRPQLLIYQVSNRGSGVPDRFTGSGSGTDFTLKISGVKAEDAGVYYCAQATYYPLTFGSGTRLEIK
notes: about 100 kDa on SDS-PAGE; also called 3A03 ScFv-hFc; not shown: CH2-CH3 constant domains of human IgG1 (vector pUPEX50)
B3: 5E12 scFv-human Fc (Fc fusion)
scFv: QLQLVESGGGLVQPGGSLRLSCVASGFTFRNYPMTWVRQAPGKGPEWVSAINGGGDIPYYADSVKGRFTISRDNAKNTVYLQMDSLKPEDTAMYYCAKQKWGYDPRRTDFEFRGQGTQVTVSSGGGGSGGGGSGGGGSETVPTQSPSSVTASVGEKVTITCKSSQSVRIESNHKTYLNWYQQRPGRGPRLLIYDASSRESGIPDRFSGSGSTSDFTLTISSVQPEDAAVYYCQQAYAAPTFGQGTKLEIK
notes: about 100 kDa on SDS-PAGE; also called 5E12 ScFv-hFc; not shown: CH2-CH3 constant domains of human IgG1 (vector pUPEX50)
B4: VHH clone 13B06 (VHH)
VHH: QVQLVESGGGLVQAGGSLRLSCAASGRTFSTYSMAWFRQAPGKEREFVAAITRSGGNTYADSVKGRFTISRDNAKNTVTLQMNSLKPEDTAAYHCAAGGTYSFVPRSYNYWGQGTQVTVSS
notes: Purified VHH-Myc-His from E. coli; not shown: Myc and His tags of the phagemid vector
B5: VHH clone 13C04 (VHH)
VHH: B4 VHH with Q1E, V2L, L4V
notes: as for B4
B6: VHH clone 13E09 (VHH)
VHH: QVQVQESGGGLVQAGNSLRLSCAASGRTFSSYHMMWFRQAPGKEREFVAAIAWRGGTYCANSVKGRCTISRDNAKDTVYLQMNSLKPEDTAVYFCAASLRYVFDPSAMDYWGKGTLVTVSS
notes: as for B4
B7: VHH clone 13C03 (VHH)
VHH: QVQLVESGGGLVQPGGSLRLSCAASGSIFSISRMGWYRQAPGKQRELVAIIFSDASTDYADSVKGRFTISRSNAKNTVYLQMNSLKPEDTAVYYCKSVLRAAGYGYFNQYWGQGTQVTVSS
notes: as for B4
B8: scFv 1A12 (periplasmic extract, Myc-tagged) (scFv, not shown: small tags and cut ends)
scFv: B1 scFv
B9: scFv 6F05 (periplasmic extract, Myc-tagged) (scFv, not shown: small tags and cut ends)
scFv: QLQLVESGGGLVQPGGSLRLSCAASGFTFSSYAMSWVRQAPGKGLEWVSAINSGGGSTSYADSVKGRFTISRDNAKNTLYLQMNSLKPEDTAVYYCATPGDRLWYYRYDYWGQGTQVTVSSGGGGSGGGGSGGGGSQAGLTQPPSVSGTLGKAVTISCAGTSSDIGYGNYVSWYQQLPGTAPKLLIYKVSRRASGVPDRFSGSKSGNTASLSISGLQSEDEADYYCASYRYRNNVVFGGGTHLTVL
notes: also called 6F5
B10: scFv 3A03 (periplasmic extract, Myc-tagged) (scFv, not shown: small tags and cut ends)
scFv: B2 scFv
B11: scFv 6A11 (periplasmic extract, Myc-tagged) (scFv, not shown: small tags and cut ends)
scFv: ELQLVESGGGLVQPGGSLRLSCSASGFTFGAYAMNWVRQAPGKGLEWVSGVNSGGGLTSYGESVKGRFTISRDNAKNTLYLQMNRLNPDDTAVYYCAKSKRGAVVAGTGDDYWGQGTQVTVSSGGGGSGGGGSGGGGSSSALTQPSAVSVSLGQTARITCQGGNFGRYYVSWYQQKPGQAPVLVIYKDSERPSGIPERFSGSSSGDTATLTISGAQAEDEADYYCQSGSSSDNAVFGGGTHLTVL
B12: scFv 2E11 (periplasmic extract, Myc-tagged) (scFv, not shown: small tags and cut ends)
scFv: EVQLVESGGGLVQPGGSLRLSCAASGFTFSSYAMSWVRQAPGKGLEWVSPINSGSDSASYVDSVKGRFTISRDNAKNTLYLQMNSLKPEDTAVYYCAKARTSVVAGGMDYWGKGTLVTVSSGGGGSGGGGSGGGGSQSALTQPSAVSVSLGQTARITCQGGKFGSYYVSWYQQKPGQAPVMVIYKDNERPSGIPERFSGSSSGSTSTLTISGAQAEDEGTYYCQSGSSSDNIVFGGGTELTVF
B13: scFv 2B11 (periplasmic extract, Myc-tagged) (scFv, not shown: small tags and cut ends)
scFv: QVQLQESGPGLVKPSQTLSLTCTVSGGSITTNYYYWSWIRQPPGKGLEWMGAIAYSGSTYYSPSLKSRTSISRDTSKNQFTLQLSSVTPEDTAVYYCARAPYGISREYDYWGQGTQVTVSSGGGGSGGGGSGGGGSHSAVTQPSAVSVSLGQTARITCQGGKFGRYYASWYQQKPGQAPVLVIYKDSERPSGIPERFSGSSSGDTATLSISGAQAEDEADYFCQSGRSSDNAVFGGGTHLTVL
B14: scFv 5E12 (periplasmic extract, Myc-tagged) (scFv, not shown: small tags and cut ends)
scFv: B3 scFv
B15: scFv 6F11 (periplasmic extract, Myc-tagged) (scFv, not shown: small tags and cut ends)
scFv: QVQRQESGPGLVKPSQTLSVTCTVSGGSITTGPYSWSWIRQPPGKGLEWIGYIGYSGSTYYSPSLKSRTSISRDTSNNQFSLQLSSVTPEDTAVYYCARSRSSPTTFGMDYWGKGTLVTVSSGGGGSGGGGSGGGGSSSALTQPSAVSVSLGQTARITCQGGDFGRYYVAWYTQKPGQAPVLVIYQDSERPSGIPERFSGSSSGDTATLTISGAQAEDEAEYYCQSGISSDNIVFGGGTHLTVL
notes: also called 6F011

Target: T1, human galectin-10-His (recombinant …)
Test: SPR Biacore T3000, scFv-hFc captured by anti-human Fc, galectin-10-His as analyte
Procedure: In order to determine the binding properties (on-rate/off-rate) of the scFv-human Fc panel, their binding capacity to galectin-10 was analyzed on Biacore T3000. For this purpose, a capture approach was set up. A CM5 Chip was coated with polyclonal anti-human Fc at 8000 RU, then a fixed concentration of the scFv-human Fc panel (1.5 μg/mL), diluted in HBS-EP pH7.4, were captured to reach a binding signal around 150 RU. Finally, a serial dilution of galectin-10-His (serial dilution, 1 over 2 from 5 μg/mL, 6 points of dilution) diluted in HBS-EP pH7.4 was injected. Raw data were analyzed via BIA evaluation software with a blank subtraction (4-3). The kd/KD and Rmax of each scFv-human Fc for galectin-10-His was determined using the Fit Kinetics simultaneous ka/kd/Binding with mass transfer/Local Rmax on BIA evaluation software.

First: B1
Second: B2
The Kd of the first is 7.5-fold higher: 11.7 nM for the first, 1.56 nM for the second. The second binds more tightly here.

With B3 the Kd was 4.73 nM.

First: B1
Second: B2
The koff of the first is 3.5-fold lower: 0.00315 s⁻¹ for the first, 0.0111 s⁻¹ for the second.

Work on B3 yielded a koff of 0.00177 s⁻¹.

Target: T1, human galectin-10-His (recombinant …)
Test: ELISA, scFv-hFc on coated galectin-10-His (0.2 ug/mL)
Procedure: In a similar setup to that used during the initial screening, the relative binding properties of the 12 scFv-human Fc clones were analyzed by ELISA. Briefly, a Maxisorp plate was coated with galectin-10-His at 0.2 μg/mL and blocked with casein, before being incubated with a serial dilution of the scFv-human Fc fusion molecules. After several washing steps, detection of the bound scFv-human Fc was carried out with an anti-human Fc-HRP antibody. Absorbance was measured at 450 nm (reference at 620 nm) with Tecan instrument. Finally, the raw data (OD values) were plotted on GraphPad Prism 7.01. The EC50 value of each compound was calculated with a non-linear regression (log(agonist) vs. response Variable slope (four parameters)).

Going from B1 to B2, the “Bmax (OD values)” value rises from 0.409 OD to 1.81 OD.

With B3 the “Bmax (OD values)” value was 1.84 OD.

First: B2
Second: B3
The EC50 of the first is 4.2-fold lower: 0.06 nM for the first, 0.25 nM for the second. The first is the more potent here.

Target: T2, cynomolgus galectin-10-His, YRT isoform
Test: ELISA, Gal10-His coated at 1 ug/mL, VHH titrated, anti-Myc-HRP
Procedure: (§1) The binding capacity of the 15 VHH clones was analysed by ELISA. Briefly, a Maxisorp plate was coated overnight with human or cynomolgus WGS or YRT isoforms galectin-10-His at 1 μg/mL and blocked with PBS 1% casein, before being incubated with a serial dilution of the VHH (from 4 μM, dilution 1/3, 12 points of dilutions). […] Absorbance was measured at 450 nm (reference at 620 nm) with Tecan instrument. Finally, the raw data (OD values) were plotted on GraphPad Prism 7.01. […] As a positive control, clone 1D06 from the previous human specific panel was included.

First: B4
Second: B5
The “Bmax (OD values)” value of the first is lower: 2 OD for the first, 2.5 OD for the second.

B6 was tested, and the “Bmax (OD values)” value was 3 OD.

Work on B6 yielded an EC50 of 66.9 nM.

Target: T3, human galectin-10-His
Test: as above
Procedure: as §1

Compared with B7, B4 is lower in “Bmax (OD values)” value: 2 OD for the first, 1 OD for the second.

First: B5
Second: B6
The “Bmax (OD values)” value of the first is lower: 1.1 OD for the first, 1.8 OD for the second.

First: B7
Second: B6
The EC50 of the first is 3.5-fold lower: 30.6 nM for the first, 106 nM for the second.

target: T4, human galectin-10 as coated in ELISA …; test: ELISA, scFv periplasmic extract on coated soluble galectin-10, anti-Myc-HRP
Procedure: In order to test the binding capacity of the scFvs to galectin-10, an ELISA binding assay was established. Briefly, a Maxisorp plate was coated with soluble galectin-10 (1 μg/mL), then blocked with casein, before being incubated with the periplasmic extract (dilution 1/5 in PBS) containing the scFv-Myc. Detection of the binder was carried out with an anti-Myc-HRP antibody. Absorbance was measured at 450 nm (reference at 620 nm) with Tecan instrument. A significant number of galectin-10 scFv binders were isolated after the second round of selection (45-87% of binders).

Compared with B8, B9 is higher in “PERI-ELISA binding (OD values)” value: 2.13 OD for the first, 3.83 OD for the second.

Going from B10 to B11, the “PERI-ELISA binding (OD values)” value falls from 3.4 OD to 2.35 OD.

Going from B12 to B13, the “PERI-ELISA binding (OD values)” value rises from 3.51 OD to 3.79 OD.

Compared with B14, B15 is higher in “PERI-ELISA binding (OD values)” value: 2.42 OD for the first, 3.76 OD for the second.
